Data: patent publication US6899879

Target: human CD40 antigen on the surface of human B cells (human) (UniProt P25942)
Assay: cell-based or functional assay

UniProt P25942, sequence (P25942 21-277): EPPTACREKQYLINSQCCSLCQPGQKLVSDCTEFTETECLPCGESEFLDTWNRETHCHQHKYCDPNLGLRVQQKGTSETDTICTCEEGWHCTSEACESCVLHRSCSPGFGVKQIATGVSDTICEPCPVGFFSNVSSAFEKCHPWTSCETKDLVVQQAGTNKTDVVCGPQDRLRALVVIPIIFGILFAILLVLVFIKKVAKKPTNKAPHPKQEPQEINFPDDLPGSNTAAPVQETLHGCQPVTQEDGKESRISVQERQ

With anti-CD40 monoclonal antibody 5D12 the 50% of maximal inhibition of human T-cell induced immunoglobulin production by human B cells was 30 ng/mL, the concentration giving complete inhibition of EL4B5-induced human B-cell proliferation was 10 ng/mL and the half-maximal inhibition of EL4B5-induced human B-cell proliferation was 1 ng/mL. The percentage of inhibition of immunoglobulin production by human B cells was 40 to 70%.
